Here are results for 1 molecule from paper PMC8591604 (Journal of Medicinal Chemistry, 2021).

[ ]: non-standard residue; d: D form. pY = N[C@@H](Cc1ccc(OP(=O)(O)O)cc1)C(=O)O

This assay deals with T1, N-SH2 domain of SHP2 (residues 2–111) (human, UniProt Q06124 2-111).
T1 construct: SHP2 (PTPN11), human, N-terminal SH2 domain, residues 2-111; also called wild-type N-SH2; source: E. coli (DE3) Rosetta2, purified (Ni-NTA)
T1 sequence (looked up): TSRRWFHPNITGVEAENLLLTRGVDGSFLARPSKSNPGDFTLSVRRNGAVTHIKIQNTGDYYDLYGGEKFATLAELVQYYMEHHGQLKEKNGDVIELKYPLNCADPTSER
Briefly: fluorescence polarisation; fluorescence anisotropy, displacement: 1.0 nM CF-P9 with 40 nM N-SH2 titrated with unlabelled peptide; fluorescence buffer. The conditions noted are these: both partners purified.

B1: P8, unlabeled IRS-1 pY1172 peptide, residues −2 to +5 (peptide)
peptide: Ac-LN[pY]IDLDL-NH2
SMILES: CC[C@H](C)[C@H](NC(=O)[C@H](Cc1ccc(OP(=O)(O)O)cc1)NC(=O)[C@H](CC(N)=O)NC(=O)[C@H](CC(C)C)NC(C)=O)C(=O)N[C@@H](CC(=O)O)C(=O)N[C@@H](CC(C)C)C(=O)N[C@@H](CC(=O)O)C(=O)N[C@@H](CC(C)C)C(N)=O
notes: IRS-1, residues −2 to +5 around pY1172 (rat numbering; P9 without residue −3); source: synthetic peptide
For B1, the binding result is given as “binds”.
